The results in this text go back to article PMC8775132, “Complement-Mediated Selective Tumor Cell Lysis Enabled by Bi-Functional RNA Aptamers”.

One data set has as its target complement C3b (human, UniProt P01024;P01024 23-667;749-1663). The data set can be described thus: EMSA; 250 nM protein; 20 mM HEPES pH 7.4, 150 mM NaCl, 10 mM MgCl2, BSA and yeast RNA 1 ug/20 uL each, 45 min at 37 C. The conditions noted are these: protein: native; copies: 1;1; label: 32P.
Data set [1] has as its target T1, complement iC3b (human, UniProt P01024;P01024;P01024 23-667;749-1303;1321-1663). The description is as above. Particulars: protein: native; copies: 1;1;1; label: 32P.
In data set [2] the target is T1, complement iC3b. The data set can be described thus: filter binding; 20 mM HEPES pH 7.4, 150 mM NaCl, 10 mM MgCl2, BSA and yeast RNA 1 ug/20 uL each, 45 min at 37 C. Particulars: protein: native; copies: 1;1;1; label: 32P.
Another data set concerns the target complement C3 (human, UniProt P01024;P01024 23-667;672-1663). The description is as above. Particulars: protein: native; copies: 1;1; label: 32P.

Sequence of complement C3b (P01024 23-667, chain 1 of 2): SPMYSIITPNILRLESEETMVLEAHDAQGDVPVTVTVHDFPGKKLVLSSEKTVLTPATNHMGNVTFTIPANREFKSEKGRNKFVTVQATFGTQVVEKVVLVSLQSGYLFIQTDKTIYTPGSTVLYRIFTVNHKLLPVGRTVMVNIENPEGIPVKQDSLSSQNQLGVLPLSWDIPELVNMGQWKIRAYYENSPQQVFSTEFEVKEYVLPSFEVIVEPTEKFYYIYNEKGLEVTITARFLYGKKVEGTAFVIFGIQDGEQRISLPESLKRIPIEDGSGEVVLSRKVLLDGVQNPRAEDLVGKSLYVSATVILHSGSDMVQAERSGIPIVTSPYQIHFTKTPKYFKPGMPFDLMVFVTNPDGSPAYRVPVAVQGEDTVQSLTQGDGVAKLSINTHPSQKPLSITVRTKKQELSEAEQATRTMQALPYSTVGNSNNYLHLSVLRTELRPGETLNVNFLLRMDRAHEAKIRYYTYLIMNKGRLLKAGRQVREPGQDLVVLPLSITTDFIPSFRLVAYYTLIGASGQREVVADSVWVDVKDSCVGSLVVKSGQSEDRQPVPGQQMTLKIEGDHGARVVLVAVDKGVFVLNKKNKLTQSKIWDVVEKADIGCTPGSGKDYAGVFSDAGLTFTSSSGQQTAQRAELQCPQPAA
Sequence of complement C3b (P01024 749-1663, chain 2 of 2): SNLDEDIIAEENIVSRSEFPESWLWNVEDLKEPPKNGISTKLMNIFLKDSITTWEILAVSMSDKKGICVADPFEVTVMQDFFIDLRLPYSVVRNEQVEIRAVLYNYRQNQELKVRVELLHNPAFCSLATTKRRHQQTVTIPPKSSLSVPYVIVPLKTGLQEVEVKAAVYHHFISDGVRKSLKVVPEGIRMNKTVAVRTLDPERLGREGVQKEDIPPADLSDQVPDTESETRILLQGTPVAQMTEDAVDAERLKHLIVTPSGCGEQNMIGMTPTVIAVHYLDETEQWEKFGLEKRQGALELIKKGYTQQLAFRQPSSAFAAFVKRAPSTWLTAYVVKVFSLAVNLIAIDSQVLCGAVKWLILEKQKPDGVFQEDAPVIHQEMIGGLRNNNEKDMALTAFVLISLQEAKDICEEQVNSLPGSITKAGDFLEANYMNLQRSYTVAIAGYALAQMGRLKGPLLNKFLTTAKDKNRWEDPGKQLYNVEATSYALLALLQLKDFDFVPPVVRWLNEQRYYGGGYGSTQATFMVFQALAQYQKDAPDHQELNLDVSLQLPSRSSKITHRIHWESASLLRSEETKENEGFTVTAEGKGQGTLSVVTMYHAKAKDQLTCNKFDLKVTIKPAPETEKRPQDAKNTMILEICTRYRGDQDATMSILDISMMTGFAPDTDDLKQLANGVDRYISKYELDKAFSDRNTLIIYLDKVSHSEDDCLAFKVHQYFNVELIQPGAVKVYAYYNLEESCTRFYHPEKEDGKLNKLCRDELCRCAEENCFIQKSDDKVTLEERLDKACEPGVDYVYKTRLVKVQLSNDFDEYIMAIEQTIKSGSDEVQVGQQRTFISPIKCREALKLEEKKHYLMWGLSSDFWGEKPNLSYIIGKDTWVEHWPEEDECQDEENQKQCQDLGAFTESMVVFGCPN
T1 sequence (P01024 23-667, chain 1 of 3): as the sequence (P01024 23-667, chain 1 of 2) above
T1 sequence (P01024 749-1303, chain 2 of 3): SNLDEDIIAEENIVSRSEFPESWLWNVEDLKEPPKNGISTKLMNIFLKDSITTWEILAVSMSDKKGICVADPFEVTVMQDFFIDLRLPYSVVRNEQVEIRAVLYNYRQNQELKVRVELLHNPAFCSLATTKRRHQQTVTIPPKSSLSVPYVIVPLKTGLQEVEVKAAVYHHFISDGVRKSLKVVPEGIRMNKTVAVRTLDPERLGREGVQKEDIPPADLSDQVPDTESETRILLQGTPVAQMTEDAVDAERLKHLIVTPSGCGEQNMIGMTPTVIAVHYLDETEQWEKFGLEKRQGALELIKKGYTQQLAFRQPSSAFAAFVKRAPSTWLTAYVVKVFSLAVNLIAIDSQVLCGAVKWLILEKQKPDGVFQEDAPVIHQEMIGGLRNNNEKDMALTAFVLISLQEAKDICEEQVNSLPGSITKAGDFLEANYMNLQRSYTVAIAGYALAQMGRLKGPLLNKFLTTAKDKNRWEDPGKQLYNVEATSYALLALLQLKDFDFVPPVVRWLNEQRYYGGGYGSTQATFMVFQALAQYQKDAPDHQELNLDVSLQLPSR
T1 sequence (P01024 1321-1663, chain 3 of 3): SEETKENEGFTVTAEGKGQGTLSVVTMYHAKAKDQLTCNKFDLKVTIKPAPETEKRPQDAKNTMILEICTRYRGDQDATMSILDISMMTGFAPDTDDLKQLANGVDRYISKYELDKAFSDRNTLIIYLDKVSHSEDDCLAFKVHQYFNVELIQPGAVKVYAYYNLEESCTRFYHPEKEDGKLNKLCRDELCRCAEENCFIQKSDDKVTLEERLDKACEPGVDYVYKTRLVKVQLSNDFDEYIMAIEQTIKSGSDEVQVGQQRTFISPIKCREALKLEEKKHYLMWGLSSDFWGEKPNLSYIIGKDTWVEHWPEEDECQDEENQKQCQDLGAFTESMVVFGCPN
Sequence of complement C3 (P01024 23-667, chain 1 of 2): as the sequence (P01024 23-667, chain 1 of 2) above
Sequence of complement C3 (P01024 672-1663, chain 2 of 2): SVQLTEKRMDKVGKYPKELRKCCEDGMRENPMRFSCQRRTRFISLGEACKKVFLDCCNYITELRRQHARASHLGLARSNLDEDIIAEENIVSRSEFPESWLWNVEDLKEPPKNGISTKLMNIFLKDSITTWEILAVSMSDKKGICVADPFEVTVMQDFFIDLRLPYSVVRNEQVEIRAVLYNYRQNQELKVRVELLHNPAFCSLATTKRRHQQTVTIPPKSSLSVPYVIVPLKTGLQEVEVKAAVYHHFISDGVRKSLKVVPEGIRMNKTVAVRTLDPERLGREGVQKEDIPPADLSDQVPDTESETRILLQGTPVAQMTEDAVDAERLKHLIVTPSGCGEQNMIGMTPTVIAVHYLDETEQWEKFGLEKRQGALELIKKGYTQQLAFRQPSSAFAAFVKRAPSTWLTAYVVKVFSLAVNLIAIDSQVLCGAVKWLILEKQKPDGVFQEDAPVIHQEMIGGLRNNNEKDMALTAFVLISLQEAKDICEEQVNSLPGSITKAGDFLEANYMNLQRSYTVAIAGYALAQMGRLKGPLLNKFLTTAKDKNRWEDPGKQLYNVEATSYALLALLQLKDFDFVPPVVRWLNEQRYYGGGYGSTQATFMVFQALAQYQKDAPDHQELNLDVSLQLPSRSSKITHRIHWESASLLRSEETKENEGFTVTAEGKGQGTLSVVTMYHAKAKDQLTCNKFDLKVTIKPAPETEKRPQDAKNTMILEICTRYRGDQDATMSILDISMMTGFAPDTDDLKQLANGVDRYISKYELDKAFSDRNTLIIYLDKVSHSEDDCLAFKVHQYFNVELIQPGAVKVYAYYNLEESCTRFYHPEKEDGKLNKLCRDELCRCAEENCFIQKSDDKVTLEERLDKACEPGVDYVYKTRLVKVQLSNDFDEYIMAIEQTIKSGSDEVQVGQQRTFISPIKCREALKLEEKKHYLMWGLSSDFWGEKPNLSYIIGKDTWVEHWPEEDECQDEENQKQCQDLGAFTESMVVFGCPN

B1: AptC3-VI (structured_RNA)
RNA: GGGAGAAUUCAACUGCCAUCUAACCACGUAGUAAUACGGUAUGAUCCAGUUUUAAUUCUAACCAGACUGUUCAGAUGACUACAAGCUUCUGGACUCGGU
modifications: 2'-fluoro pyrimidines
As for B1, the binding result with complement C3b is reported as “binds”.

B2: AptC3-IV (structured_RNA)
RNA: GGGAGAAUUCAACUGCCAUCUAGUUGCAAAAACAUGAGGAUAGCAAAGUACCAGUGCAACUAACAAGGAAAAGAAGACGGACUACAAGCUUCUGGACUCGGU
modifications: 2'-fluoro pyrimidines
For B2, the binding result with complement iC3b [1] and with complement C3b was “binds” throughout.

B3: AptC3-III (structured_RNA)
RNA: GGGAGAAUUCAACUGCCAUCUACAGCCCCUCGGCCGCGUUCAGCGUCUAACCUUGGGCUGUAUAGAAAGGGUUUCCAGACUACAAGCUUCUGGACUCGGU
modifications: 2'-fluoro pyrimidines
On to B3, for which the results for the Kd in the data set with complement iC3b [2] and with complement C3 were 14.5 nM and 17 nM, respectively.
